Read-outs that look alike come from different tables or passages of the source.

For series [1], the target named is Lac repressor (LacI)-peptide fusion, full length (Escherichia coli) (UniProt P03023). The following applies: plasmid panning on D32.39 antibody; deletion of lacOs, near background.
Series [2] has as its target headpiece dimer A4.5 (mutant) Q18R (second headpiece) (Escherichia coli) (UniProt P03023). The settings on record: panning of protein-plasmid complex.
The test system of another series is DNA. The settings on record: cited from earlier work.
Series [3] deals with headpiece dimer B4.5 (mutant) Q18R (second headpiece) (Escherichia coli) (UniProt P03023). The settings on record: panning Exp. 3; lacOs plasmid complex stability, site of binding not established.
The target in series [4] is Lac repressor (LacI)-peptide fusion, full length (Escherichia coli, UniProt P03023 P03023:1-360). The series can be described thus: panning Exp. 3, partial (B) induction. The settings on record: chain copies: 4 (stated tetramer).
Series [5] has as its system plasmid pCMG14 fragments / lacOs-containing fragments. The experiment in a line: Protein-DNA binding experiments with plasmid fragments (gel shift, 32P-labeled fragments). The settings on record: over-expressed polypeptides; with unlabelled herring DNA competitor. The procedure:
To determine the plasmid binding site(s) of headpiece dimer mutant A4.5 and the non-mutant B7, several protein-DNA binding experiments were performed.
(In general: Mobility shift assays separate free from complexed probe on a gel.)

Another series has as its system wild-type lacO. The settings on record: single wild-type lacO; cited from earlier work.
The next series has as its system lacZYA. The experiment in a line: Repression of chromosomal lacZYA, direct β-galactosidase assay in strain ARI 20. It is filed as cell-based, E. coli. The source says:
One can estimate the lacI expression level necessary to fill the available binding sites in a typical plasmid p.MC5 derivative by observing the behavior of strain ARI 20 (lacI^- lacZYA^+) transformed with pMC3 or pMC5 (encoding only the linker peptide GADGA [SEQ. ID NO.:65]). Because the lacO sites in plasmids pMC3 and pMC5 have higher affinity than those in the lacZYA operon, the available repressor should fill the plasmid sites first. Substantial repression of lacZYA should be observed only if there is an excess of repressor beyond the amount needed to fill the plasmid sites. As shown by color level on X-gal indicator plates and direct assays of β-galactosidase (see Miller, Experiments in Molecular Genetics (Cold Spring Harbor Laboratory, Cold Spring Harbor, N.Y. (1972)), incorporated herein by reference), the amount of repressor produced by pMC5 is sufficient to fill the lacO sites and repress greater than 200 fold lacZYA in ARI 20 host cells during growth in normal LB medium (2.4 units compared to 500 units from ARI 20 transformed with vector pBAD18, which has no lacI). The repressor encoded by pMC3 was partially inactivated by the addition of the dynorphin B tail, allowing about 10 fold higher expression of lacZYA (37 units). […]

The molecule plasmid lacking lacOs yielded a binding signal (fold drop in enrichment) in series [1] of 446. In series [2] (lacOs not required), the binding signal (fold enrichment) came to 44.
On to “arc repressor: arc repressor of phage P22 (MKGMSKMPQFNLRWPREVLDLVRKVAEENGRSVNSEIYQRVMESFKKEGRIGA; UniProt P03050 1-53, looked up)”, for which the dissociation half-life in the series with DNA was 1.33 h.
On to AATTGTGAGCGCTCACAATT (double strand), for which the activity (fold enrichment) in series [3] came out at 850. In series [2] (plasmid with lacOs), this molecule gave a binding signal (fold enrichment) of 43.

B1: lacOs (symmetric lac operator) on plasmid or plasmid fragment (dsDNA)
DNA 1: AATTGTGAGCGCTCACAATT
DNA 2: AATTGTGAGCGCTCACAATT
Take B1: the activity in series [4] amounted to 155 fold enrichment.

B2: lac repressor: 37 kDa product of the E. coli lacI gene, binds lacO (protein, UniProt P03023 1-360, looked up)
Lactose operon repressor: MKPVTLYDVAEYAGVSYQTVSRVVNQASHVSAKTREKVEAAMAELNYIPNRVAQQLAGKQSLLIGVATSSLALHAPSQIVAAIKSRADQLGASVVVSMVERSGVEACKAAVHNLLAQRVSGLIINYPLDDQDAIAVEAACTNVPALFLDVSDQTPINSIIFSHEDGTRLGVEHLVALGHQQIALLAGPLSSVSARLRLAGWHKYLTRNQIQPIAEREGDWSAMSGFQQTMQMLNEGIVPTAMLVANDQMALGAMRAITESGLRVGADISVVGYDDTEDSSCYIPPLTTIKQDFRLLGQTSVDRLLQLSQGQAVKGNQLLPVSLVKRKTTLAPNTQTASPRALADSLMQLARQVSRLESGQ
As to B2, the “binding to 32P-labeled plasmid fragments” value in series [5] is “specific binding of lacI to lacOs -containing fragments”. For the same molecule, in the series on wild-type lacO, the association rate constant was 7e+09 M⁻¹ s⁻¹ and the “half-life for the lac repressor-lacO complex” value was “about 30 min”.

B3: pMC5: library plasmid encoding lac repressor with only the linker peptide GADGA (protein, UniProt P03023 1-360, looked up)
Lactose operon repressor: B2 Lactose operon repressor
modifications: C-terminal GADGA linker peptide
In the case of B3, in the series on lacZYA (ARI 20, LB medium, compared with vector pBAD18 (no lacI)), the “repression of lacZYA” value is listed as “greater than 200 fold”. For the same molecule, the β-galactosidase in the series on lacZYA (ARI 20 host cells, normal LB medium) was found to be 2.4 units.

(Values after patent US6156511A, “Peptide library and screening method” (Affymax Technologies N.V., priority 1998, dated 2000).)
